Experimental findings from patent publication US20230248820A1 are described below.

The target of this test is HCMV pentameric complex gH/gL/pUL128/pUL130/pUL131A (Pentamer), wild type, Merlin strain (HCMV Merlin strain) (UniProt Q6SW67). Put plainly: method not stated.

As to “8I21 with HCDR3 Trp105 mutated to alanine (antibody)”, the fold decrease in binding affinity against 8I21 without the mutation is > 150 fold.
